What was measured:
Mouse GDF15 Fc = molecular target: T1, Mouse GDF15 Fc (mouse, UniProt Q9Z0J7 189-303, limits assumed); test: BLI Octet; antigen on sensor, 100 nM Fab (monovalent)
T1 construct: also called mouse GDF15-Fc fusion; not shown: Fc part
T1 sequence (looked up): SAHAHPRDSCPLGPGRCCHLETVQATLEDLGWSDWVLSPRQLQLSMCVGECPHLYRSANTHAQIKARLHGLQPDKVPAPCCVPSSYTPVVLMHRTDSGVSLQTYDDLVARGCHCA

Human GDF15 Fc [1] = molecular target: T2, Human GDF15 Fc (human, UniProt Q99988 195-308, limits assumed, biotinylated (EZ-Link Sulfo-NHS-Biotinylation Kit) in the SPR assay); test: SPR Biacore 8K; biotinylated antigen captured, Fab analyte
T2 construct: also called human GDF15-Fc fusion; biotinylated Human GDF15 Fc; not shown: Fc part
T2 sequence: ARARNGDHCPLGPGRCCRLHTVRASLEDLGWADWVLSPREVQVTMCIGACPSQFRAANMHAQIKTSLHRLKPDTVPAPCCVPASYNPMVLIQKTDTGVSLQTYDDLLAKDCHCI
Method: Kinetic analysis was conducted at 25° C. in HBS-EP+running buffer (10 mM HEPES pH 7.4, 150 mM NaCl, 3 mM EDTA, 0.05% Surfactant P20) using a Biacore 8K optical biosensor (Cytiva, Marlborough, MA). The sample compartment was maintained at 10° C. for the duration of the experiment. The Biacore 8K can analyze up to 8 separate interactions in a single cycle.
Each experiment cycle began with an injection (300 s at 2 μL/min) overflow cells 1 and 2 of a 1:100 solution of biotin CAPture reagent (Cytiva) in running buffer. This was followed by an injection (45 s at 10.0 μL/min) of biotinylated human GDF15 (5 nM) overflow cell 2. […] The dissociation of the antibodies were monitored for 3420 s. Finally, an injection (120 s at 10 μL/min) of regeneration solution (6 M Guanidine-HCl in 0.25 M NaOH) overflow cells 1 and 2 prepared the sensor surface for another cycle. Several blank buffer samples were injected (300 s at 30 μL/min) overflow cells 1 and 2 throughout the duration of the experiment and used for reference surface subtraction—each were monitored for the same amount of dissociation time (3420 s) and regenerated under the same conditions as those for the Fab sample injections.

[2] = molecular target: T3, GDF15 (ligand used in the GFRAL/RET cell assays) (UniProt Q99988 197-308, limits assumed); test: cell-based or functional assay
T3 sequence (looked up): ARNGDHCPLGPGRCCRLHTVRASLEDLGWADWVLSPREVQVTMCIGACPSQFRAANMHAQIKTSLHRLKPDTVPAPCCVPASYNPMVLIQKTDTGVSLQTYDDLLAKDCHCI

Human GDF15 Fc [3] = molecular target: T2, Human GDF15 Fc; test: BLI Octet; IgG on sensor, 100 nM antigen (avid)
Method: Briefly, ForteBio affinity measurements were performed by loading IgGs on-line onto AHC sensors. Sensors were equilibrated off-line in assay buffer for 30 min and then monitored on-line for 60 seconds for baseline establishment. Sensors with loaded IgGs were exposed to 100 nM antigen for 3 minutes, and afterwards were transferred to assay buffer for 3 min for off-rate measurement. All kinetics were analyzed using the 1:1 binding model.

Human Activin B = molecular target: T4, Human Activin B (human, UniProt P09529 293-407); test: BLI Octet; IgG on sensor
T4 sequence (looked up): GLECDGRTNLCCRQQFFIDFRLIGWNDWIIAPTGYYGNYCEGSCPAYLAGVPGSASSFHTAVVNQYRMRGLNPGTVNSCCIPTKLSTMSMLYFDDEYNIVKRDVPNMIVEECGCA

Human BMP10 = molecular target: T5, Human BMP10 (human, UniProt O95393 317-424); test: BLI Octet; IgG on sensor
T5 sequence (looked up): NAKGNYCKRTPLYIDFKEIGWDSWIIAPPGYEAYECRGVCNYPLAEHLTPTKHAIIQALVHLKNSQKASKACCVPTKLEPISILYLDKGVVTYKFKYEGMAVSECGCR

GDF8 = GDF8 (UniProt O14793 267-375); test: BLI Octet; IgG on sensor
Human Activin A Fc = molecular target: T6, Human Activin A Fc (human, UniProt P08476 311-426); test: BLI Octet; IgG on sensor
T6 construct: not shown: Fc part
T6 sequence (looked up): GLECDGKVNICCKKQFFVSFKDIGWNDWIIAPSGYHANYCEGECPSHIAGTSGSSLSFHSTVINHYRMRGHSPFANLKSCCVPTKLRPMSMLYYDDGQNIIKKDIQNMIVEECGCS

GDF11 = molecular target: T7, GDF11 (UniProt O95390 299-407); test: BLI Octet; IgG on sensor
T7 construct: Also used as ligand in the Activin 2B receptor/SMAD reporter assay
T7 sequence (O95390 299-407 limits assumed): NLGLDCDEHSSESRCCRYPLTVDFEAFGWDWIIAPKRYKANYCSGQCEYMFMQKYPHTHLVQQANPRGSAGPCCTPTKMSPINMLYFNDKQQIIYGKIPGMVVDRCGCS

GDNF = molecular target: T8, GDNF (UniProt P39905 78-211); test: BLI Octet; IgG on sensor
T8 sequence (looked up): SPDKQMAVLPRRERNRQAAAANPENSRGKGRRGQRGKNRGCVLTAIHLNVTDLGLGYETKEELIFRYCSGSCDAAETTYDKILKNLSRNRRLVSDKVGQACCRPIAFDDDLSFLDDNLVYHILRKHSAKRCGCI

Cyno GDF15 Fc = molecular target: T9, Cyno GDF15 Fc (cyno, UniProt G7PWZ3 193-308, limits assumed); test: BLI Octet; antigen on sensor, 100 nM Fab (monovalent)
T9 construct: also called cyno GDF15-Fc fusion; not shown: Fc part
T9 sequence: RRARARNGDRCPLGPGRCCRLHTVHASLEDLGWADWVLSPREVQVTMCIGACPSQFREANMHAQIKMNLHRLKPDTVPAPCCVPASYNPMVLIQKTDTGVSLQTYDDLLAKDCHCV

Human BMP9 = molecular target: T10, Human BMP9 (human, UniProt Q9UK05 320-429); test: BLI Octet; IgG on sensor
T10 sequence (looked up): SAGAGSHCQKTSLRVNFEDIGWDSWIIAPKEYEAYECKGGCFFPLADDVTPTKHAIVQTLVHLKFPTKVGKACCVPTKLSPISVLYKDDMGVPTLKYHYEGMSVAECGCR

GDF10 = molecular target: T11, GDF10 (UniProt P55107 369-478); test: BLI Octet; IgG on sensor
T11 sequence (looked up): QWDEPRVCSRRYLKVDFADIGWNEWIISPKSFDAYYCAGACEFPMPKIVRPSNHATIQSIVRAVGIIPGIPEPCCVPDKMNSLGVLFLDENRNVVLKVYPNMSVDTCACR

B1: GDF15 antibody agent Clone N, Fab (Fab, V domains shown)
VH: QVQLVQSGAEVKKPGASVKVSCKASGYTFTDYGIFWVRQAPGQGLEWMGWITAYSGDTHYAQKLQGRVTMTTDTSTSTAYMELRSLRSDDTAVYYCVRDTQYGGSPYWGQGTLVTVSS
VL: EIVMTQSPATLSVSPGERATLSCRASQSVSSNLAWYQQKPGQAPRLLIYGASTRATGIPARFSGSGSGTEFTLTISSLQSEDFAVYYCQQYNNWPITFGGGTKVEIK
notes: Fab; CH1 and CL of the Fab not specified; also called Fab of Clone N
Kd (Mouse GDF15 Fc): 2.56 nM | Kd (Human GDF15 Fc [1]): 0.545 nM | koff (Human GDF15 Fc [1]): 0.00318 s⁻¹ | kon (Human GDF15 Fc [1]): 5.84e+06 M⁻¹ s⁻¹ | GDF15 GFRAL RET pERK Fab IC50 pM [2]: 322 pM

B2: GDF15 antibody agent Clone F, IgG (antibody, V domains shown)
VH: QVQLVQSGAEVKKPGSSVKVSCKASGGTFGGYAISWVRQAPGQGLEWMGGIIPPYATANYAQKFQGRVTITADESTSTAYMELSSLRSEDTAVYYCARGVGTTHLDVWGQGTMVTVSS
VL: not shown
Kd (Human GDF15 Fc [3]): 0.244 nM | GDF15-GFRAL RET pERK IC50 (pM) [2]: 34.9 pM | GDF15-GFRAL-RET Luciferase IC50 (pM) [2]: 91.3 pM | binding result (Human Activin B): no binding (tested: 100 nM) | binding result (Human BMP10): no binding (tested: 100 nM) | binding result (GDF8): no binding (tested: 100 nM) | binding result (Human Activin A Fc): no binding (tested: 100 nM) | binding result (GDF11): no binding (tested: 100 nM) | binding result (GDNF): no binding (tested: 100 nM)

B3: GDF15 antibody agent Clone F, Fab (Fab, V domains shown)
VH: QVQLVQSGAEVKKPGSSVKVSCKASGGTFGGYAISWVRQAPGQGLEWMGGIIPPYATANYAQKFQGRVTITADESTSTAYMELSSLRSEDTAVYYCARGVGTTHLDVWGQGTMVTVSS
VL: not shown
notes: Fab; CH1 and CL of the Fab not specified; also called Fab of Clone F
Kd (Cyno GDF15 Fc): 0.553 nM | Kd (Mouse GDF15 Fc): 26.1 nM | GDF15 GFRAL RET pERK Fab IC50 pM [2]: 11.2 pM

B4: GDF15 antibody agent Clone G, Fab (Fab, V domains shown)
VH: QVQLVQSGAEVKKPGSSVKVSCKASGGTFQGYAISWARQAPGQGLEWMGGIIPPYATANYAQKFQGRVTITADESTSTAYMELSSLRSEDTAVYYCARGVGELHLDVWGQGTMVTVSS
VL: not shown
notes: Fab; CH1 and CL of the Fab not specified; also called Fab of Clone G
Kd (Cyno GDF15 Fc): 0.474 nM | GDF15 GFRAL RET pERK Fab IC50 pM [2]: 33.2 pM

B5: GDF15 antibody agent Clone I, IgG (antibody, V domains shown)
VH: QVQLVQSGAEVKKPGASVKVSCKASGYTFTDEGINWVRQAPGQGLEWMGWITAYSGDTVYAQKLQGRVTMTTDTSTSTAYMELRSLRSDDTAVYYCARGPGQYADVDVWGQGTMVTVSS
VL: DIQMTQSPSSVSASVGDRVTITCRASQGISSWLAWYQQKPGKAPKLLIYAASSLQSGVPSRFSGSGSGTDFTLTISSLQPEDFATYYCQQANSFPITFGGGTKVEIKR
Kd (Human GDF15 Fc [3]): 0.262 nM | GDF15-GFRAL RET pERK IC50 (pM) [2]: 34.5 pM | GDF15-GFRAL-RET Luciferase IC50 (pM) [2]: 79.3 pM | binding result (Human Activin B): no binding (tested: 100 nM) | binding result (Human BMP9): no binding (tested: 100 nM) | binding result (Human BMP10): no binding (tested: 100 nM) | binding result (GDF8): no binding (tested: 100 nM) | binding result (GDF10): no binding (tested: 100 nM) | binding result (Human Activin A Fc): no binding (tested: 100 nM) | binding result (GDF11): no binding (tested: 100 nM)

B6: GDF15 antibody agent Clone B, Fab (Fab, V domains shown)
VH: QVQLQESGPGLVKPSQTLSLTCTVSGGSISSGGIYWTWIRQHPGKGLEWIGAIAYSGSTYYNPSLKSRVTISVDTSKNQFSLKLSSVTAADTAVYYCARGIEYQHFDYWGQGTLVTVSS
VL: not shown
notes: Fab; CH1 and CL of the Fab not specified; also called Fab of Clone B
Kd (Cyno GDF15 Fc): 0.349 nM | GDF15 GFRAL RET pERK Fab IC50 pM [2]: 30.9 pM

B7: GDF15 antibody agent Clone Q, Fab (Fab, V domains shown)
VH: QVQLQESGPGLVKPSQTLSLTCTVSGGSISSGGIYWTWIRQHPGKGLEWIGAIAYSGSTYYNPSLKSRVTISVDTSKNQFSLKLSSVTAADTAVYYCARGIEYQHFDYWGQGTLVTVSS
VL: not shown
notes: Fab; CH1 and CL of the Fab not specified; also called Fab of Clone Q
Kd (Cyno GDF15 Fc): 0.327 nM | Kd (Mouse GDF15 Fc): 204 nM

B8: GDF15 antibody agent Clone D, Fab (Fab, V domains shown)
VH: QVQLQESGPGLVKPSQTLSLTCTVSGGSINSGGYYWTWIRQHPGKGLEWIGAIYYSGSTVYNPSLKSRVTISVDTSKNQFSLKLSSVTAADTAVYYCARGVEYQHFNEWGQGTLVTVSS
VL: not shown
notes: Fab; CH1 and CL of the Fab not specified; also called Fab of Clone D
Kd (Cyno GDF15 Fc): 0.562 nM | Kd (Mouse GDF15 Fc): 157 nM | GDF15 GFRAL RET pERK Fab IC50 pM [2]: 27 pM

B9: GDF15 antibody agent Clone C, Fab (Fab, V domains shown)
VH: QVQLQESGPGLVKPSQTLSLTCTVSGGSISSGGYYWSWIRQHPGKGLEWIGAIVYSGHTYYNPSLKSRVTISVDTSKNQFSLKLSSVTAADTAVYYCARGVEYQHFSLWGQGTLVTVSS
VL: not shown
notes: Fab; CH1 and CL of the Fab not specified; also called Fab of Clone C
Kd (Cyno GDF15 Fc): 0.36 nM | Kd (Mouse GDF15 Fc): 156 nM | GDF15 GFRAL RET pERK Fab IC50 pM [2]: 36.8 pM

B10: GDF15 antibody agent Clone A, Fab (Fab, V domains shown)
VH: QVQLQESGPGLVKPSQTLSLTCTVSGGSITSGGSYWSWIRQHPGKGLEWIGAIVYSGSTYYNPSLKSRVTISVDTSKNQFSLKLSSVTAADTAVYYCARGVEYQHFDYWGQGTLVTVSS
VL: not shown
notes: Fab; CH1 and CL of the Fab not specified; also called Fab of Clone A
Kd (Cyno GDF15 Fc): 0.536 nM | GDF15 GFRAL RET pERK Fab IC50 pM [2]: 26.5 pM

B11: GDF15 antibody agent Clone R, Fab (Fab, V domains shown)
VH: QVQLQESGPGLVKPSQTLSLTCTVSGGSISSGGIYWTWIRQHPGKGLEWIGAIAYSGSTYYNPSLESRVTISVDTSKNQFSLKLSSVTAADTAVYYCARGIEYQHFDYWGQGTLVTVSS
VL: not shown
notes: Fab; CH1 and CL of the Fab not specified; also called Fab of Clone R
Kd (Cyno GDF15 Fc): 0.366 nM | Kd (Mouse GDF15 Fc): 234 nM

From patent US20250382359A1 (BYOMASS, published 2025)
